From PMC3847041, “Role of N-Cadherin cis and trans Interfaces in the Dynamics of Adherens Junctions in Living Cells” (PLoS ONE, 2013)
Each block holds one molecule with its values, some of them ahead of it.

What was measured:
[1] = target: N-cadherin-R14E fluorescent fusion protein (X-dimer mutant); experiment: FRET or BRET; ratiometric FRET (Venus to Cerulean fluorescence over time) at a junction between one Venus- and one Cerulean-expressing living COS7 cell; 100 ms interval for 35 sec; baseline 10-15 sec, then the Ca2+ chelator BAPTA added to 20 mM final
[2] = target: N-cadherin-R14E fluorescent fusion protein (X-dimer mutant); experiment: FRET or BRET; acceptor bleach FRET at junctions between living COS7 cells of two mixed populations, one expressing the Venus (acceptor) and the other the Cerulean (donor) copy; trans interaction across the junction; FRET ratio = (IpostDonor - IpreDonor)/IpostDonor
[3] = target: N-cadherin-V81D/V174D fluorescent fusion protein (cis double mutant); experiment: FRET or BRET; ratiometric FRET (Venus to Cerulean fluorescence over time) at a junction between one Venus- and one Cerulean-expressing living COS7 cell; 100 ms interval for 35 sec; baseline 10-15 sec, then the Ca2+ chelator BAPTA added to 20 mM final
[4] = target: N-cadherin-V81D/V174D fluorescent fusion protein (cis double mutant); experiment: FRET or BRET; acceptor bleach FRET at junctions between living COS7 cells of two mixed populations, one expressing the Venus (acceptor) and the other the Cerulean (donor) copy; trans interaction across the junction; FRET ratio = (IpostDonor - IpreDonor)/IpostDonor
[5] = target: N-cadherin-W2A fluorescent fusion protein (strand-swap mutant); experiment: as above
[6] = target: N-cadherin-W2A fluorescent fusion protein (strand-swap mutant); experiment: FRET or BRET; ratiometric FRET (Venus to Cerulean fluorescence over time) at a junction between one Venus- and one Cerulean-expressing living COS7 cell; 100 ms interval for 35 sec; baseline 10-15 sec, then the Ca2+ chelator BAPTA added to 20 mM final
[7] = target: the molecule itself; experiment: FRET or BRET; acceptor bleach FRET at junctions between living COS7 cells of two mixed populations, one expressing the Venus (acceptor) and the other the Cerulean (donor) copy; trans interaction across the junction; FRET ratio = (IpostDonor - IpreDonor)/IpostDonor
[8] = target: the molecule itself; experiment: FRET or BRET; ratiometric FRET (Venus to Cerulean fluorescence over time) at a junction between one Venus- and one Cerulean-expressing living COS7 cell; 100 ms interval for 35 sec; baseline 10-15 sec, then the Ca2+ chelator BAPTA added to 20 mM final

Molecule: N-cadherin-V81D/V174D fluorescent fusion protein (cis double mutant) (natural protein)
ratiometric FRET ratio before BAPTA [3]: 99.6%
FRET ratio (acceptor bleach) [4]: 22.4%

Molecule: N-cadherin-W2A fluorescent fusion protein (strand-swap mutant)
FRET ratio (acceptor bleach) [5]: 29.4%

B1: N-cadherin-WT fluorescent fusion protein (N-cadherin-Venus / N-cadherin-Cerulean) (natural protein, UniProt P15116 160-906, looked up)
chain: DWVIPPINLPENSRGPFPQELVRIRSDRDKNLSLRYSVTGPGADQPPTGIFIINPISGQLSVTKPLDRELIARFHLRAHAVDINGNQVENPIDIVINVIDMNDNRPEFLHQVWNGSVPEGSKPGTYVMTVTAIDADDPNALNGMLRYRILSQAPSTPSPNMFTINNETGDIITVAAGLDREKVQQYTLIIQATDMEGNPTYGLSNTATAVITVTDVNDNPPEFTAMTFYGEVPENRVDVIVANLTVTDKDQPHTPAWNAAYRISGGDPTGRFAILTDPNSNDGLVTVVKPIDFETNRMFVLTVAAENQVPLAKGIQHPPQSTATVSVTVIDVNENPYFAPNPKIIRQEEGLHAGTMLTTLTAQDPDRYMQQNIRYTKLSDPANWLKIDPVNGQITTIAVLDRESPNVKNNIYNATFLASDNGIPPMSGTGTLQIYLLDINDNAPQVLPQEAETCETPEPNSINITALDYDIDPNAGPFAFDLPLSPVTIKRNWTINRLNGDFAQLNLKIKFLEAGIYEVPIIITDSGNPPKSNISILRVKVCQCDSNGDCTDVDRIVGAGLGTGAIIAILLCIIILLILVLMFVVWMKRRDKERQAKQLLIDPEDDVRDNILKYDEEGGGEEDQDYDLSQLQQPDTVEPDAIKPVGIRRLDERPIHAEPQYPVRSAAPHPGDIGDFINEGLKAADNDPTAPPYDSLLVFDYEGSGSTAGSLSSLNSSSSGGDQDYDYLNDWGPRFKKLADMYGGGDD
notes: a fluorescent protein is inserted into the second extracellular cadherin repeat at position 151 of the mature protein; numbers count on: the mature protein; Self-association in trans: one cell population expresses the Venus copy (FRET acceptor), the other the Cerulean copy (FRET donor); both are written as this one molecule; also called N-cadherin-Venus-WT; WT-N-cadherin; source: COS7 cells, …
FRET ratio (acceptor bleach) [7]: 19.9%
ratiometric FRET ratio after 20 mM BAPTA [8]: 89.6%
ratiometric FRET ratio before BAPTA [8]: 99.6%

Second part, the molecule after the results:

ratiometric FRET ratio after 20 mM BAPTA [1]: 98.8%
ratiometric FRET ratio before BAPTA [1]: 99.2%
FRET ratio (acceptor bleach) [2]: 14%
Molecule: N-cadherin-R14E fluorescent fusion protein (X-dimer mutant) (natural protein)

ratiometric FRET ratio before BAPTA [6]: 98.6%
Molecule: N-cadherin-W2A fluorescent fusion protein (strand-swap mutant) (natural protein)
